This test has as its target HLA-A*02:01 (Homo sapiens, UniProt P04439, D140Y/D185E/D98H/E176V/E277Q/G131W/G231S/I119V/I121R/I166T/I218V/L300P/L318F/N151K/N90K/P208A/P217A/Q86G/Q94H/R138H/R169H/T345S). Nature of the test: MHC binding assay (UV-ligand exchange, anti-β2m ELISA, peptide exchange yield). Conditions: binding to HLA-A*02:01. The source says: Candidate peptides for T cell based therapies according to the present invention were further tested for their MHC binding capacity (affinity). The individual peptide-MHC complexes were produced by UV-ligand exchange, where a UV-sensitive peptide is cleaved upon UV-irradiation, and exchanged with the peptide of interest as analyzed. Only peptide candidates that can effectively bind and stabilize the peptide-receptive MHC molecules prevent dissociation of the MHC complexes. To determine the yield of the exchange reaction, an ELISA was performed based on the detection of the light chain (β2m) of stabilized MHC complexes. The assay was performed as generally described in Rodenko et al. (Rodenko et al., 2006).
96 well MAXISorp plates (NUNC) were coated over night with 2 ug/ml streptavidin in PBS at room temperature, washed 4× and blocked for 1h at 37° C. in 2% BSA containing blocking buffer. […] Peptide-MHC monomers of the UV-exchange reaction were diluted 100 fold in blocking buffer. Samples were incubated for 1 h at 37° C., washed four times, incubated with 2 ug/ml HRP conjugated anti-β2m for 1h at 37° C., washed again and detected with TMB solution that is stopped with […]. Absorption was measured at 450 nm. Candidate peptides that show a high exchange yield (preferably higher than 50%, most preferred higher than 75%) are generally preferred for a generation and production of antibodies or fragments thereof, and/or T cell receptors or fragments thereof, as they show sufficient avidity to the MHC molecules and prevent dissociation of the MHC complexes.
(In general: In an ELISA, binding on a coated surface is turned into a signal by an enzyme label.)
In the case of “586 (KLKPGDLVGV; listed as Homo sapiens) [compound 586]”, the “Peptide exchange (MHC class I binding score, peptide exchange yield)” value (from here on “Peptide exchange”) is on record as ““+++” (>50 = +++)”.

Take “321 (GLFEDVTQPGILL; listed as Homo sapiens) [compound 321]”: the “Peptide exchange” value is on record as ““++++” (>75% = ++++)”.

Regarding “386 (ILFRYPLTI; listed as Homo sapiens) [compound 386]”, the “Peptide exchange” value was ““+++” (>50 = +++)”.

“468 (YLRSVGDGETV; listed as Homo sapiens) [compound 468]”: the “Peptide exchange” value is given as ““+++” (>50 = +++)”.

Consider “613 (RLLPPGAVVAV; listed as Homo sapiens) [compound 613]”, for which the “Peptide exchange” value was ““+++” (>50 = +++)”.

Turning to “507 (KLIDDQDISISL; listed as Homo sapiens) [compound 507]”, the “Peptide exchange” value is reported as ““+++” (>50 = +++)”.

As for “261 (YVLEFLEEI; listed as Homo sapiens) [compound 261]”, the “Peptide exchange” value is recorded as ““++” (>20% = ++)”.

Consider “576 (ILLNNSGQIKL; listed as Homo sapiens) [compound 576]”, for which the “Peptide exchange” value was ““++++” (>75% = ++++)”.

In the case of “612 (YLYNEGLSV; listed as Homo sapiens) [compound 612]”, the “Peptide exchange” value is on record as ““+++” (>50 = +++)”.

For “345 (VIWKALIHL; listed as Homo sapiens) [compound 345]”, the “Peptide exchange” value is reported as ““+++” (>50 = +++)”.

As for “184 (YLMDINGKMWL; listed as Homo sapiens) [compound 184]”, the “Peptide exchange” value is given as ““+++” (>50 = +++)”.

As to “244 (SLFGGTEITI; listed as Homo sapiens) [compound 244]”, the “Peptide exchange” value is on record as ““+++” (>50 = +++)”.

For the substance “180 (FQIDPHSGLVTV; listed as Homo sapiens) [compound 180]”, the “Peptide exchange” value is given as ““++” (>20% = ++)”.

For the substance “514 (ILVDWLVQV; listed as Homo sapiens) [compound 514]”, the “Peptide exchange” value is listed as ““+++” (>50 = +++)”.

In the case of “448 (NLLETKLQL; listed as Homo sapiens) [compound 448]”, the “Peptide exchange” value is reported as ““+++” (>50 = +++)”.

“497 (GLLEKLTAI; listed as Homo sapiens) [compound 497]”: the “Peptide exchange” value is listed as ““+++” (>50 = +++)”.

For the substance “106 (LLYDAVHIVSV; listed as Homo sapiens) [compound 106]”, the “Peptide exchange” value was ““+++” (>50 = +++)”.

With “52 (FLLAHGLGFLL; listed as Homo sapiens) [compound 52]”, the “Peptide exchange” value was ““++++” (>75% = ++++)”.

For the substance “543 (GLLPTPITQQASL; listed as Homo sapiens) [compound 543]”, the “Peptide exchange” value is recorded as ““+++” (>50 = +++)”.

As to “190 (FLSSLTETI; listed as Homo sapiens) [compound 190]”, the “Peptide exchange” value is on record as ““+++” (>50 = +++)”.

In the case of “582 (TLCDVILMV; listed as Homo sapiens) [compound 582]”, the “Peptide exchange” value is given as ““+++” (>50 = +++)”.

As to “573 (ILVANAIVGV; listed as Homo sapiens) [compound 573]”, the “Peptide exchange” value is on record as ““+++” (>50 = +++)”.

For the substance “403 (KLYDRILRV; listed as Homo sapiens) [compound 403]”, the “Peptide exchange” value is listed as ““++” (>20% = ++)”.

Turning to “508 (ILAQEQLVVGV; listed as Homo sapiens) [compound 508]”, the “Peptide exchange” value is ““+++” (>50 = +++)”.

For “487 (LLINSVFHV; listed as Homo sapiens) [compound 487]”, the “Peptide exchange” value is recorded as ““+++” (>50 = +++)”.

Turning to “212 (ALWDQDNLSV; listed as Homo sapiens) [compound 212]”, the “Peptide exchange” value was ““++” (>20% = ++)”.

As to “310 (FLVDTPLARA; listed as Homo sapiens) [compound 310]”, the “Peptide exchange” value is recorded as ““++++” (>75% = ++++)”.

“163 (ALDEMGDLLQL; listed as Homo sapiens) [compound 163]”: the “Peptide exchange” value is ““+++” (>50 = +++)”.

On to “405 (ALYDVFLEV; listed as Homo sapiens) [compound 405]”, for which the “Peptide exchange” value was ““++” (>20% = ++)”.

“587 (VMNDRLYAI; listed as Homo sapiens) [compound 587]”: the “Peptide exchange” value is reported as ““+++” (>50 = +++)”.

Regarding “465 (QLCDLNAEL; listed as Homo sapiens) [compound 465]”, the “Peptide exchange” value is ““+++” (>50 = +++)”.

On to “466 (VLIANLEKL; listed as Homo sapiens) [compound 466]”, for which the “Peptide exchange” value was ““++++” (>75% = ++++)”.

In the case of “348 (ILLDVKTRL; listed as Homo sapiens) [compound 348]”, the “Peptide exchange” value is ““++++” (>75% = ++++)”.

As for “240 (ILLEQAFYL; listed as Homo sapiens) [compound 240]”, the “Peptide exchange” value is reported as ““+++” (>50 = +++)”.

Consider “47 (ILLSVPLLVV; listed as Homo sapiens) [compound 47]”, for which the “Peptide exchange” value is ““++” (>20% = ++)”.

For the substance “592 (RLLSAAENFL; listed as Homo sapiens) [compound 592]”, the “Peptide exchange” value was ““+++” (>50 = +++)”.

Take “153 (FLIANVLYL; listed as Homo sapiens) [compound 153]”: the “Peptide exchange” value is on record as ““+” (>10% = +)”.

For the substance “388 (SLTIDGIRYV; listed as Homo sapiens) [compound 388]”, the “Peptide exchange” value is ““+++” (>50 = +++)”.

“472 (KLLEVSDDPQV; listed as Homo sapiens) [compound 472]”: the “Peptide exchange” value was ““+++” (>50 = +++)”.

In the case of “51 (LLPDLEFYV; listed as Homo sapiens) [compound 51]”, the “Peptide exchange” value is given as ““++++” (>75% = ++++)”.

“286 (YLFPGIPEL; listed as Homo sapiens) [compound 286]”: the “Peptide exchange” value is given as ““+++” (>50 = +++)”.

Regarding “43 (VLSSLEINI; listed as Homo sapiens) [compound 43]”, the “Peptide exchange” value was ““++” (>20% = ++)”.

Consider “175 (YLFENISQL; listed as Homo sapiens) [compound 175]”, for which the “Peptide exchange” value is ““+++” (>50 = +++)”.

Consider “464 (ALNDCIYSV; listed as Homo sapiens) [compound 464]”, for which the “Peptide exchange” value is listed as ““+++” (>50 = +++)”.

In the case of “527 (FLLEPGNLEV; listed as Homo sapiens) [compound 527]”, the “Peptide exchange” value is on record as ““++++” (>75% = ++++)”.

For “114 (SLVGEPILQNV; listed as Homo sapiens) [compound 114]”, the “Peptide exchange” value is on record as ““++” (>20% = ++)”.

Take “350 (ALLDVTHSELTV; listed as Homo sapiens) [compound 350]”: the “Peptide exchange” value is listed as ““+++” (>50 = +++)”.

Regarding “94 (YLIDIKTIAI; listed as Homo sapiens) [compound 94]”, the “Peptide exchange” value is ““++” (>20% = ++)”.

Regarding “450 (FMIDASVHPTL; listed as Homo sapiens) [compound 450]”, the “Peptide exchange” value is on record as ““+++” (>50 = +++)”.

As for “336 (ILLTAIVQV; listed as Homo sapiens) [compound 336]”, the “Peptide exchange” value is reported as ““+++” (>50 = +++)”.

On to “329 (FLVTLNNVEV; listed as Homo sapiens) [compound 329]”, for which the “Peptide exchange” value is given as ““++++” (>75% = ++++)”.

Regarding “562 (YLEELPEKLKL; listed as Homo sapiens) [compound 562]”, the “Peptide exchange” value is ““+++” (>50 = +++)”.

As for “135 (ALSEVDFQL; listed as Homo sapiens) [compound 135]”, the “Peptide exchange” value is listed as ““+++” (>50 = +++)”.

Turning to “33 (VLLSLLEKV; listed as Homo sapiens) [compound 33]”, the “Peptide exchange” value is ““++” (>20% = ++)”.

Regarding “548 (ALWENPESGEL; listed as Homo sapiens) [compound 548]”, the “Peptide exchange” value was ““++” (>20% = ++)”.

For “438 (KLLPLAGLYL; listed as Homo sapiens) [compound 438]”, the “Peptide exchange” value is on record as ““++++” (>75% = ++++)”.

These data come from patent US10239925B2, “Peptides and combination of peptides for use in immunotherapy against ovarian cancer and other cancers” (IMMATICS BIOTECHNOLOGIES GMBH, priority 2015, dated 2019).
